Changes are numbered by the printed parent chain. Numbers in names are those of the source.
B1: P53A1R5-17 (designed binder, not shown: small tags and cut ends)
chain: LPAPKNLVVSEVTEDSLRLSWADPHGFYDSFLIQYQESEKVGEAINLTVPGSERSYDLTGLKPGTEYTVSIYGVHNVYKDTNMRGLPLSAEFTT
B2: P53A1R5-17v2 (designed binder, not shown: small tags and cut ends)
chain: B1 chain with L17A, N46V, E91I
B3: P54AR4-17 (designed binder, not shown: small tags and cut ends)
chain: B1 chain with A22T, D23Y, P24D, H25R, G26D, F27G
B4: P54AR4-48 (designed binder, not shown: small tags and cut ends)
chain: B1 chain with A22D, H25R, D29E
B5: P54AR4-73 (designed binder, not shown: small tags and cut ends)
chain: B1 chain with A22T, D23W, H25Y, G26A, F27D, Y28L
B6: P54AR4-83 (designed binder, not shown: small tags and cut ends)
chain: B1 chain with A22D, H25W, G26A, D29E
B7: P54CR4-31 (designed binder, not shown: small tags and cut ends)
chain: LPAPKNLVVSEVTEDSLRLSWTAPDAAFDSFLIQYQESEKVGEAINLTVPGSERSYDLTGLKPGTEYTVSIYGVLGSYVFEHDVMLPLSAEFTT
B8: P114AR5P74-A5 (designed binder, not shown: small tags and cut ends)
chain: LPAPKNLVVSRVTEDSARLSWTAPDAAFDSFWIRYDEVVVGGEAIVLTVPGSERSYDLTGLKPGTEYYVNILGVKGGSISVPLSAIFTT
B9: control monovalent anti-cMet mAb M1-K409R-gp120-F405L (bispecific antibody, human IgG1, kappa)
heavy 1: not shown
light 1: DIQMTQSPSSVSASVGDRVTITCRASQGISNWLAWFQHKPGKAPKLLIYAASSLLSGVPSRFSGSGSGTDFTLTISSLQPEDFATYYCQQANSFPITFGQGTRLEIKRTVAAPSVFIFPPSDEQLKSGTASVVCLLNNFYPREAKVQWKVDNALQSGNSQESVTEQDSKDSTYSLSSTLTLSKADYEKHKVYACEVTHQGLSSPVTKSFNRGEC
heavy 2: not shown
light 2: EIVLTQSPGTLSLSPGERATFSCRSSHSIRSRRVAWYQHKPGQAPRLVIHGVSNRASGISDRFSGSGSGTDFTLTITRVEPEDFALYYCQVYGASSYTFGQGTKLERKRTVAAPSVFIFPPSDEQLKSGTASVVCLLNNFYPREAKVQWKVDNALQSGNSQESVTEQDSKDSTYSLSSTLTLSKADYEKHKVYACEVTHQGLSSPVTKSFNRGEC
notes: also called M1-K409R-120-F405L
B10: control monovalent anti-EGFR mAb E1-F405L-gp120-K409R (bispecific antibody, human IgG1, kappa)
heavy 1: not shown
light 1: not shown
heavy 2: not shown
light 2: B9 light 2
notes: also called E1-F405L-120-K409R
B11: parental bivalent anti-c-Met antibody M1-K409R (antibody, human IgG1, kappa, V domains shown)
VH: QVQLVQSGAEVKKPGASVKVSCETSGYTFTSYGISWVRQAPGHGLEWMGWISAYNGYTNYAQKLQGRVTMTTDTSTSTAYMELRSLRSDDTAVYYCARDLRGTNYFDYWGQGTLVTVSS
VL: DIQMTQSPSSVSASVGDRVTITCRASQGISNWLAWFQHKPGKAPKLLIYAASSLLSGVPSRFSGSGSGTDFTLTISSLQPEDFATYYCQQANSFPITFGQGTRLEIKR
notes: also called parental bivalent antibody; Parental mAbs

What was measured:
human EGFR on cells [1] = biological target: T1, human EGFR on cells (human, UniProt P00533 25-1210); test: A431 cell binding assay, anti-penta-His-Alexa488 detection
T1 construct: Wild type EGFR on A431, NCI-H292, NCI-H322, NCI-H441 and SNU-5 cells; in U-2 OS cells a beta-galactosidase fragment was fused to its C-terminus; also called epidermal growth factor receptor; HER1

human EGFR on cells [2] = biological target: T1, human EGFR on cells; test: cell-based or functional assay
[3] = biological target: T2, recombinant human extracellular domain of EGFR fused to an IgG1 Fc (human, UniProt P00533 25-645); test: SPR (ProteOn), EGFR-Fc captured on anti-human Fc IgG, FN3 domain as analyte
T2 construct: Bought from R&D Systems; The residues are stated for the panning reagent; also called EGFR-Fc; EGF R-Fc; not shown: IgG1 Fc
Procedure: Select EGFR-binding FN3 domains were screened to identify those with slow off-rates (koff) in binding to EGFR-Fc on a ProteOn XPR-36 instrument (Bio-Rad) to facilitate selection of high affinity binders. Goat anti-human Fc IgG (R&D systems), at a concentration of 5 μg/mL, was directly immobilized via amine coupling (at pH 5.0) on all 6 ligand channels in horizontal orientation on the chip with a flow rate of 30 μL/min in PBS containing 0.005% Tween-20. The immobilization densities averaged about 1500 Response Units (RU) with less than 5% variation among different channels. EGFR-Fc was captured on the anti-human Fc IgG surface to a density around 600 RU in vertical ligand orientation. All tested FN3 domains were normalized to a concentration of […] and tested for their binding in horizontal orientation. All 6 analyte channels were used for the FN3 domains to maximize screening throughput. The dissociation phase was monitored for 10 minutes at a flow rate of 100 μL/min. The inter-spot binding signals were used as references to monitor non-specific binding between analytes and the immobilized IgG surface, and were subtracted from all binding responses. The processed binding data were locally fit to a 1:1 simple Langmuir binding model to extract the koff for each FN3 domain binding to captured EGFR-Fc.
Binding affinity of selected EGFR-binding FN3 domains to recombinant EGFR extracellular domain was further characterized by surface Plasmon resonance methods using a Proteon Instrument (BioRad). The assay set-up (chip preparation, EGFR-Fc capture) was similar to that described above for off-rate analysis. Selected EGFR binding FN3 domains were tested at 1 μM concentration in 3-fold dilution series in the horizontal orientation. A buffer sample was also injected to monitor the baseline stability.

human EGFR on cells [4] = biological target: T1, human EGFR on cells; test: A431 cell EGF competition assay, competitor biotinylated EGF
[5] = biological target: T2, recombinant human extracellular domain …; test: affinity printed beside the clone name; SPR on EGFR-Fc taken as the method
human EGFR on cells [6] = biological target: T1, human EGFR on cells; test: A431 cell EGF competition assay, competitor biotinylated EGF; A431 cell EGF competition assay: displaces EGF from EGFR on A431 cells
human c-Met on cells [7] = biological target: T3, human c-Met on cells (human, UniProt P08581 25-1390); test: cell-based or functional assay
[8] = biological target: T4, Recombinant human c-Met Fc chimera (human, UniProt P08581 16-932); test: SPR (ProteOn), c-Met-Fc captured on anti-human Fc IgG, FN3 domain as analyte
T4 construct: not shown: Fc part

human c-Met on cells [9] = biological target: T3, human c-Met on cells; test: cell-based or functional assay; remark: listed apart in the source
[10] = biological target: T4, Recombinant human c-Met Fc chimera; test: HGF competition assay on coated c-Met-Fc, competitor biotinylated HGF
human c-Met on cells [11] = biological target: T3, human c-Met on cells; test: H441 cell binding assay, anti-His detection
Procedure: (§1) Purified FN3 domains (50 μL/well; 0 to 1000 nM) were added to the cells for 1 hour at 4° C. in duplicate plates. […] Cells were incubated with biotinylated-anti HIS antibody (diluted 1:160 in FACS stain buffer, 50 μL/well, R&D Systems, cat #BAM050) for 30 minutes at 4° C. […] Cells were washed three times with FACS stain buffer (150 μL/well) and left in FACS stain buffer (50 μL/well).

human c-Met on cells [12] = biological target: T3, human c-Met on cells; test: H441 cell binding assay (assay for c-Met binding)
Procedure: as §1

human EGFR on cells [13] = biological target: T1, human EGFR on cells; test: A431 cell binding assay (assay for EGFR binding)
[14] = biological target: human c-Met extracellular domain (human, UniProt P08581 16-932); test: MSD plate competition assay, competitor biotinylated HGF at 10 nM
Procedure: MSD Blocker A buffer (Meso Scale Discovery, Gaithersburg, Md.) was added to each well and incubated for 2 hr at room temperature. […] After 2-hour incubation with gentle shaking at room temperature, the plates were washed 3 times with 0.1M HEPES buffer (pH 7.4). MSD Read Buffer T was diluted and dispensed and the signals were analyzed with a SECTOR Imager 6000.

Binder	EC50 (human EGFR on cells [1]) [nM]	NCI-H292 Growth IC50 (human EGFR on cells [2]) [nM]	NCI-H322 Growth IC50 (human EGFR on cells [2]) [nM]	Phospho-EGFR IC50 (A431 cells) (human EGFR on cells [2]) [nM]	Kd [3] [nM]	IC50 (human EGFR on cells [4]) [nM]	further results
B1	4	86	65	> 2500	1.89	9.8	
B2							Kd [5]: 1.9 nM
B3	16			184	9.62	21	
B4	12			170	7.78	9.8	
B5	9.4	83	73	141	0.197	4.6	
B6	2.2	5.9	9.2	18	0.255	1.8	
B7		1150	> 3070	179	0.383		IC50 (human EGFR on cells [6]): 55 nM
B8							inhibition of c-Met phosphorylation in HGF-stimulated NCI-H292 cells (IC50) (human c-Met on cells [7]): 610 nM; Kd [8]: 10.1 nM; Inhibition of Proliferation of U87-MG cells (IC50) (human c-Met on cells [9]): 464 nM; pMet inhibition in H441 cells (IC50) (human c-Met on cells [9]): 1080 nM; IC50 [10]: 5.2 nM; EC50 (human c-Met on cells [11]): 18.7 nM
B9							EC50 (human c-Met on cells [12]): 1 nM; inhibition of ligand-induced c-Met phosphorylation in H292 cells (IC50) (human c-Met on cells [7]): 4.05 nM
B10							EC50 (human EGFR on cells [13]): 10.1 nM
B11							EC50 (human c-Met on cells [12]): 0.65 nM; IC50 [14]: 14.8 nM

From patent US20140255408A1 (Janssen / Centocor, published 2014)
